The values that follow come from paper PMC10093973, “The RNA-Binding and RNA-Melting Activities of the Multifunctional Protein Nucleobindin 1” (International Journal of Molecular Sciences, 2023).

For series [1], the target named is T1, NUCB1 CaBD (Homo sapiens) (UniProt Q02818).
T1 sequence: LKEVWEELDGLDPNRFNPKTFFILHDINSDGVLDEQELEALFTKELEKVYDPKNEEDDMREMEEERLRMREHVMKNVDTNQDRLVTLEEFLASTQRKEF
The experiment in a line: SPR. The following applies: SPR: 50 mM Tris-HCl pH 8.0, 200 mM NaCl, 0.1% Tween-20, with or without 2 mM CaCl2, 25 °C; 5'-biotinylated RNA immobilized, NUCB1 as analyte, 1:1 model.

Series [2] deals with T2, NUCB1 ΔN (Homo sapiens) (UniProt Q02818).
T2 sequence: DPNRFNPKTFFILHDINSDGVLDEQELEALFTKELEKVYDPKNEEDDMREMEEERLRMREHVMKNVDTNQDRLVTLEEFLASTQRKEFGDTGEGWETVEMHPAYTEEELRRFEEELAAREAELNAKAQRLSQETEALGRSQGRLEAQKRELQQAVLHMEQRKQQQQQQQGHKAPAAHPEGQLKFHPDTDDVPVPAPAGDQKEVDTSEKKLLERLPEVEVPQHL
Nature of the series: SPR. The following applies: SPR: 50 mM Tris-HCl pH 8.0, 200 mM NaCl, 0.1% Tween-20, with or without 2 mM CaCl2, 25 °C; 5'-biotinylated RNA immobilized, NUCB1 as analyte, 1:1 model.

In series [3] the target is T3, NUCB1 ΔZ (Homo sapiens) (UniProt Q02818).
T3 sequence: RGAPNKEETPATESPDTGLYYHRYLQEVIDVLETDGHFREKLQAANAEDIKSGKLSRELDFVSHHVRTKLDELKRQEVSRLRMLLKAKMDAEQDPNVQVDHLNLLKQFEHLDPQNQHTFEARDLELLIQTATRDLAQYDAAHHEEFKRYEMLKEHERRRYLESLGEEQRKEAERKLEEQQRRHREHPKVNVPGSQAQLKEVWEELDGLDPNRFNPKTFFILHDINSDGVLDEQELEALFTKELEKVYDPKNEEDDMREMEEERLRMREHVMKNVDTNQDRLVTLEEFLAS
Nature of the series: SPR. As to conditions: SPR: 50 mM Tris-HCl pH 8.0, 200 mM NaCl, 0.1% Tween-20, with or without 2 mM CaCl2, 25 °C; 5'-biotinylated RNA immobilized, NUCB1 as analyte, 1:1 model.

Series [4] deals with T4, NUCB1 ΔN (Homo sapiens, UniProt Q02818 239-461).
T4 sequence: T2 sequence
The experiment in a line: SPR; SPR: 50 mM Tris-HCl pH 8.0, 200 mM NaCl, 0.1% Tween-20, with or without 2 mM CaCl2, 25 °C; 5'-biotinylated RNA immobilized, NUCB1 as analyte, 1:1 model. The following applies: protein: recombinant; tags: N-terminal His6; label: 5'-biotin. (Surface plasmon resonance follows binding to a sensor surface in real time, without labels.)

Series [5] concerns the target T5, NUCB1 CaBD (Homo sapiens, UniProt Q02818 228-326).
T5 sequence: T1 sequence
Described as above. The following applies: protein: recombinant; tags: N-terminal His6; label: 5'-biotin.

For series [6], the target named is T6, NUCB1 ΔZ (Homo sapiens, UniProt Q02818 31-320).
T6 sequence: T3 sequence
The description is as above. The following applies: protein: recombinant; tags: N-terminal His6; label: 5'-biotin.

Series [7] deals with the molecule itself. Nature of the series: SEC; size-exclusion chromatography of the final preparations on Superdex 200 in 150 mM NaCl, 50 mM Tris-HCl (pH 8.0); oligomeric state of each protein. For orientation: In gel filtration, larger molecules generally elute earlier.

For orientation: Kd means the concentration at which binding is half-saturated. For “GUGGUCAGUCGAGUGGAAAAAAAAAAAAAAAAAA [A-rich]”, the Kd was found to be 5.7 nM in series [1], 1.4 nM in series [2] and 0.3 nM in series [3].

For the molecule “GUGGUCAGUCGAGUGGUUUUUUUUUUUUUUUUUU [U-rich]”, the dissociation constant (Kd) in series [1] is 0.2 nM; in series [2], 1.7 nM; in series [3] it was 0.4 nM.

With GUGGUCAGUCGAGUGGGGGGGG [G-rich], the Kd in series [1] came to 18.2 nM; in series [2] it was 5.3 nM; in series [3], 3.1 nM.

Take GUGGUCAGUCGAGUGGUAACACUGUCUGGUAACGAUGU (ssRNA) [miR-200a-3p]: the Kd turned out to be 0.6 ± 0.09 nM in series [4], 5.2 ± 0.2 nM in series [5] and 0.3 ± 0.01 nM in series [6].

B1: NUCB1 ΔN (239-461 aa) (domain or fragment, human, UniProt Q02818 239-461, looked up)
chain: T2 sequence
notes: Cloned in pET-28a; source: E. coli BL21(DE3)/pRARE, purified (Ni-NTA agarose; analysed by SEC on Superdex 200)
A word on the stoichiometry N: it is a count of units in the complex or per binding partner. Turning to B1, the “stoichiometry N” value in series [7] came out at 2.

B2: Nucleobindin 1 (NUCB1) lacking the signal peptide (1-30 aa) (natural protein, human, UniProt Q02818 31-461, looked up)
chain: RGAPNKEETPATESPDTGLYYHRYLQEVIDVLETDGHFREKLQAANAEDIKSGKLSRELDFVSHHVRTKLDELKRQEVSRLRMLLKAKMDAEQDPNVQVDHLNLLKQFEHLDPQNQHTFEARDLELLIQTATRDLAQYDAAHHEEFKRYEMLKEHERRRYLESLGEEQRKEAERKLEEQQRRHREHPKVNVPGSQAQLKEVWEELDGLDPNRFNPKTFFILHDINSDGVLDEQELEALFTKELEKVYDPKNEEDDMREMEEERLRMREHVMKNVDTNQDRLVTLEEFLASTQRKEFGDTGEGWETVEMHPAYTEEELRRFEEELAAREAELNAKAQRLSQETEALGRSQGRLEAQKRELQQAVLHMEQRKQQQQQQQGHKAPAAHPEGQLKFHPDTDDVPVPAPAGDQKEVDTSEKKLLERLPEVEVPQHL
notes: the C-terminal limit 461 is the one printed for NUCB1 ΔN, which was made with the same reverse primer; Cloned in pET-28a between EcoR I and Hind III from a HEK293T cDNA library; No removal of the His6 tag is described; also called Calnuc; intact NUCB1; source: E. coli BL21(DE3)/pRARE, purified (Ni-NTA agarose; analysed by SEC on Superdex 200)
Take B2: the “stoichiometry N” value in series [7] was determined as 2.
